Experimental findings from the supplement of paper PMC9112550, “Optimization of the antimicrobial peptide Bac7 by deep mutational scanning” (BMC Biology, 2022) are described below.
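Also: peptides expressed intracellularly from a pBAD plasmid library in pooled LB shake-flask culture, induced with 0.3% L-arabinose, DNA abundance read by NGS, three biological replicates, DESeq2 with apeglm shrinkage.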

The test system of this series is Escherichia coli TOP10. In words: shrunken log2 fold change of peptide-encoding DNA abundance (4.5 h post-induction vs induction); higher = less antimicrobial activity (less host growth inhibition). The settings on record: time post-induction: 4.5 h; library: site-saturation at positions 5, 18, 19, 20.
With RRIRRRPPRLPRPRPRPGHTPRP, the “shrunken log2 fold change” value is 0.274.
Then RRIRERPPRLPRPRPRPDVCPRP, with -0.239.
RRIRWRPPRLPRPRPRPNQRPRP: the “shrunken log2 fold change” value is 0.181.
For the sequence RRIRQRPPRLPRPRPRPFQPPRP, the “shrunken log2 fold change” value worked out at 0.0592.
Turning to RRIRRRPPRLPRPRPRPWGIPRP, the “shrunken log2 fold change” value was -0.24.
In the case of RRIRGRPPRLPRPRPRPDNQPRP, the “shrunken log2 fold change” value came out at 0.168.
In the case of RRIRGRPPRLPRPRPRPSCPPRP, the “shrunken log2 fold change” value was -0.12.
In the case of RRIRMRPPRLPRPRPRPHPDPRP, the “shrunken log2 fold change” value is -0.0902.
On to RRIRTRPPRLPRPRPRPGQPPRP, for which the “shrunken log2 fold change” value came to 0.161.
The result for RRIRDRPPRLPRPRPRPARTPRP reads 0.364; that for RRIRYRPPRLPRPRPRPYTIPRP, -0.0225; that for RRIRCRPPRLPRPRPRPIEQPRP, 0.0493.
As for RRIRERPPRLPRPRPRPWACPRP, the “shrunken log2 fold change” value was determined as 0.0618.
Regarding RRIRQRPPRLPRPRPRPWTHPRP, the “shrunken log2 fold change” value is 0.00902.
RRIRKRPPRLPRPRPRPHTQPRP: the “shrunken log2 fold change” value is 0.13.
For RRIRNRPPRLPRPRPRPGMVPRP, the “shrunken log2 fold change” value is -0.23.
In the case of RRIRFRPPRLPRPRPRPSNFPRP, the “shrunken log2 fold change” value is -0.129.
In the case of RRIRFRPPRLPRPRPRPVFRPRP, the “shrunken log2 fold change” value was -0.362.
RRIRERPPRLPRPRPRPYWDPRP: the “shrunken log2 fold change” value was -0.111.
The result for RRIRHRPPRLPRPRPRPRQGPRP reads 0.093; that for RRIRFRPPRLPRPRPRPMQTPRP, -0.101.
As for RRIRKRPPRLPRPRPRPLYGPRP, the “shrunken log2 fold change” value is -0.289.
For RRIRVRPPRLPRPRPRPNYFPRP, the “shrunken log2 fold change” value was -0.303.
The result for RRIRRRPPRLPRPRPRPTKVPRP reads 0.118; that for RRIRYRPPRLPRPRPRPIIYPRP, -0.522; that for RRIRTRPPRLPRPRPRPLNFPRP, -0.446.
On to RRIRPRPPRLPRPRPRPAIGPRP, for which the “shrunken log2 fold change” value was -0.0136.
Regarding RRIRLRPPRLPRPRPRPWDIPRP, the “shrunken log2 fold change” value was -0.0445.
Consider RRIRNRPPRLPRPRPRPGPEPRP, for which the “shrunken log2 fold change” value was determined as 0.684.
The result for RRIRQRPPRLPRPRPRPAENPRP reads 0.0325; that for RRIRNRPPRLPRPRPRPCNQPRP, 0.0223.
For the sequence RRIRHRPPRLPRPRPRPCEQPRP, the “shrunken log2 fold change” value was -0.0166.
As to RRIRHRPPRLPRPRPRPSFHPRP, the “shrunken log2 fold change” value was -0.495.
The result for RRIRFRPPRLPRPRPRPQAYPRP reads -0.0572.
In the case of RRIRIRPPRLPRPRPRPVKMPRP, the “shrunken log2 fold change” value is -0.173.
For RRIRERPPRLPRPRPRPSMAPRP, the “shrunken log2 fold change” value is -0.192.
As to RRIRERPPRLPRPRPRPLHMPRP, the “shrunken log2 fold change” value is -0.203.
RRIRPRPPRLPRPRPRPNFAPRP: the “shrunken log2 fold change” value came to 0.445.
Then RRIRWRPPRLPRPRPRPIWGPRP, with -0.01; and RRIRIRPPRLPRPRPRPPTTPRP, with 0.0744.
For RRIRKRPPRLPRPRPRPAFYPRP, the “shrunken log2 fold change” value is 0.114.
Consider RRIRVRPPRLPRPRPRPVWIPRP, for which the “shrunken log2 fold change” value is -0.206.
For RRIRQRPPRLPRPRPRPHQTPRP, the “shrunken log2 fold change” value is -0.0333.
For RRIRKRPPRLPRPRPRPIFPPRP, the “shrunken log2 fold change” value is 0.319.
The result for RRIRLRPPRLPRPRPRPGKVPRP reads -0.0116.
Consider RRIRSRPPRLPRPRPRPWPHPRP, for which the “shrunken log2 fold change” value is -0.0676.
Regarding RRIRHRPPRLPRPRPRPYKLPRP, the “shrunken log2 fold change” value is -0.611.
For the sequence RRIRDRPPRLPRPRPRPFLDPRP, the “shrunken log2 fold change” value was 0.431.
As to RRIRMRPPRLPRPRPRPNNIPRP, the “shrunken log2 fold change” value is -0.564.
For RRIRCRPPRLPRPRPRPLYKPRP, the “shrunken log2 fold change” value was -0.275.
Consider RRIRKRPPRLPRPRPRPMESPRP, for which the “shrunken log2 fold change” value was 0.0143.
Take RRIRQRPPRLPRPRPRPNSLPRP: the “shrunken log2 fold change” value is -0.489.
With RRIRERPPRLPRPRPRPQVRPRP, the “shrunken log2 fold change” value was -0.0385.
With RRIRPRPPRLPRPRPRPELRPRP, the “shrunken log2 fold change” value is -0.0276.
On to RRIRSRPPRLPRPRPRPWMHPRP, for which the “shrunken log2 fold change” value was -0.0312.
Then RRIRLRPPRLPRPRPRPLIDPRP, with -0.258; and RRIRRRPPRLPRPRPRPENLPRP, with 0.0548; and RRIRDRPPRLPRPRPRPEMHPRP, with 0.891.
Regarding RRIRSRPPRLPRPRPRPDPYPRP, the “shrunken log2 fold change” value is -0.312.
Then RRIRSRPPRLPRPRPRPMMQPRP, with -0.241.
Take RRIRCRPPRLPRPRPRPAQDPRP: the “shrunken log2 fold change” value turned out to be 0.289.
Then RRIRMRPPRLPRPRPRPIWGPRP, with 0.0405; and RRIRLRPPRLPRPRPRPTFNPRP, with -0.289.
Then RRIRTRPPRLPRPRPRPIIDPRP, with -0.000898; and RRIRFRPPRLPRPRPRPQIAPRP, with 0.111.
Then RRIRIRPPRLPRPRPRPMWSPRP, with 0.045; and RRIRRRPPRLPRPRPRPYAAPRP, with 0.395.
Take RRIRKRPPRLPRPRPRPKHEPRP: the “shrunken log2 fold change” value was 0.134.
In the case of RRIRKRPPRLPRPRPRPDYIPRP, the “shrunken log2 fold change” value is -0.0117.
Then RRIRSRPPRLPRPRPRPPVLPRP, with 0.0563; and RRIRPRPPRLPRPRPRPEPGPRP, with 0.27.
For the sequence RRIRVRPPRLPRPRPRPHMLPRP, the “shrunken log2 fold change” value is -0.311.
With RRIRERPPRLPRPRPRPQISPRP, the “shrunken log2 fold change” value was -0.0116.
With RRIRWRPPRLPRPRPRPNGMPRP, the “shrunken log2 fold change” value is -0.0595.
For RRIRYRPPRLPRPRPRPPPVPRP, the “shrunken log2 fold change” value was 0.61.
For the sequence RRIRIRPPRLPRPRPRPGGYPRP, the “shrunken log2 fold change” value was -0.16.
In the case of RRIRSRPPRLPRPRPRPNIIPRP, the “shrunken log2 fold change” value is -0.774.
Consider RRIRARPPRLPRPRPRPIYQPRP, for which the “shrunken log2 fold change” value turned out to be 0.0519.
Then RRIRGRPPRLPRPRPRPGHSPRP, with -0.0314; and RRIRMRPPRLPRPRPRPIPLPRP, with 0.00552; and RRIRQRPPRLPRPRPRPFGVPRP, with 0.0831.
Then RRIRLRPPRLPRPRPRPLGWPRP, with 0.584.
Then RRIRSRPPRLPRPRPRPCWYPRP, with -0.393; and RRIRYRPPRLPRPRPRPYWAPRP, with -1.11.
In the case of RRIRGRPPRLPRPRPRPWRWPRP, the “shrunken log2 fold change” value turned out to be 0.656.
Consider RRIRFRPPRLPRPRPRPPEVPRP, for which the “shrunken log2 fold change” value is 0.795.
RRIRVRPPRLPRPRPRPGDRPRP: the “shrunken log2 fold change” value was 0.365.
Turning to RRIRIRPPRLPRPRPRPELPPRP, the “shrunken log2 fold change” value is 0.0135.
The result for RRIRNRPPRLPRPRPRPWVEPRP reads -0.109; that for RRIRLRPPRLPRPRPRPGFVPRP, 0.487.
Regarding RRIRMRPPRLPRPRPRPQSCPRP, the “shrunken log2 fold change” value is -0.00838.
For RRIRMRPPRLPRPRPRPTRYPRP, the “shrunken log2 fold change” value was determined as 0.628.
The result for RRIRLRPPRLPRPRPRPPPQPRP reads 1.12; that for RRIRKRPPRLPRPRPRPWHPPRP, 0.143.
Take RRIRTRPPRLPRPRPRPVDRPRP: the “shrunken log2 fold change” value amounted to 0.141.
Regarding RRIRRRPPRLPRPRPRPVQDPRP, the “shrunken log2 fold change” value amounted to 0.252.
Then RRIRVRPPRLPRPRPRPTIMPRP, with -0.411; and RRIRDRPPRLPRPRPRPYPNPRP, with -0.0838; and RRIRGRPPRLPRPRPRPDTGPRP, with -0.0756.
The result for RRIRTRPPRLPRPRPRPELEPRP reads 0.0188; that for RRIRQRPPRLPRPRPRPTDAPRP, 0.0862; that for RRIRMRPPRLPRPRPRPSPEPRP, 1.12.
On to RRIRARPPRLPRPRPRPHYDPRP, for which the “shrunken log2 fold change” value is -0.0354.
For the sequence RRIRCRPPRLPRPRPRPRGKPRP, the “shrunken log2 fold change” value came out at 0.777.
On to RRIRVRPPRLPRPRPRPFKQPRP, for which the “shrunken log2 fold change” value is -0.0195.
For RRIRLRPPRLPRPRPRPLHFPRP, the “shrunken log2 fold change” value is -0.197.
Consider RRIRQRPPRLPRPRPRPITQPRP, for which the “shrunken log2 fold change” value is -0.132.
The result for RRIRGRPPRLPRPRPRPPQSPRP reads 1.27; that for RRIRTRPPRLPRPRPRPDQEPRP, 0.105; that for RRIRHRPPRLPRPRPRPGNMPRP, -0.121.
Turning to RRIRHRPPRLPRPRPRPDNFPRP, the “shrunken log2 fold change” value was -0.0184.
Consider RRIRGRPPRLPRPRPRPDTPPRP, for which the “shrunken log2 fold change” value amounted to 0.799.
RRIRRRPPRLPRPRPRPTLKPRP: the “shrunken log2 fold change” value worked out at 0.379.
Consider RRIRNRPPRLPRPRPRPAMEPRP, for which the “shrunken log2 fold change” value came out at 0.243.
Regarding RRIRSRPPRLPRPRPRPYMFPRP, the “shrunken log2 fold change” value was -0.648.
Then RRIRNRPPRLPRPRPRPCSRPRP, with -0.0877; and RRIRNRPPRLPRPRPRPFCIPRP, with -0.186; and RRIRSRPPRLPRPRPRPLIGPRP, with -0.118.
On to RRIRTRPPRLPRPRPRPAKEPRP, for which the “shrunken log2 fold change” value is -0.0337.
Regarding RRIRGRPPRLPRPRPRPHTPPRP, the “shrunken log2 fold change” value stood at 0.339.
Then RRIRARPPRLPRPRPRPLWKPRP, with 0.121.
With RRIRKRPPRLPRPRPRPLGIPRP, the “shrunken log2 fold change” value amounted to 4.29.
As for RRIRARPPRLPRPRPRPVSFPRP, the “shrunken log2 fold change” value is 0.368.
The result for RRIRTRPPRLPRPRPRPIMAPRP reads -0.281; that for RRIRLRPPRLPRPRPRPSFSPRP, -0.365.
